In the DeepSol protein solubility set:

Assay: soluble on expression in E. coli; label from the status in PepcDB or PDB records

For “MAHHHHHHMGQDQSRAKACQLGQAETGGTDRSVSAGSASAAPWEAPVSLAGVEGFQVVRLLPDSPAHKAGLIPFFDIVTALDKVLLESEGKAALSFFKSYVANHRDQPVCFTTFNLYSRTYRDVYCVPSDEWGGGGLLGCSIEWTRADACPERCVHVVDVLEGSPAACSTELQANRDYIIGMQTVQETLITLIKSQKDFYCRLEAWHEEQRWALERKQFFPNERVEVPHVLLFLVYNSESNTIEEVEVEMGTNPEAAVGISVATGLLHIIPSVATADLAVGASLPVMSKFASVGHSVVTPTRAQQQEHQLLQDVSLTPAVGAAPQPREQSQESTGSAQPLPSLPLPQEAHARCAVVDSPEVHTMTNPHEPPMNSCPQPCPPRPQLQQQLTEAALYSMPSLASFNVAPPPRHDAAGGTAAAAVEMGQKPFNPFAEEASPDYDVLEGAPLAHEGVMAAEHHLGQHAPTMEQPYSSSYPPLSSQSPPLSGSLPAQMNGSHNPATALPSYSAPPPPPQQLHVTTMPTFSSQRMPPPLQFPVFPGAAAAKRAPA”, which “soluble on expression in E. coli” value is on record?
Its value is “not soluble”.

Which “soluble on expression in E. coli” value does the source give for “MDSQLSNRLAQVAAYVPKGVKLLDVGSDHAYLPIFLVETNQISAAIAGEVVRGPYESALKNVTQSGLAEHIQVRLANGLAAFEEADDVTAITICGMGGRLIADILEAGKEKLQGIERLVLQPNNREDDLRAWLSVNAFKIVAETIMAENDKYYEIIVAEHGEKALSATELRFGPYLSQEKSVVFKEKWQREMDKLAYALSCIPEEKTQERQLLLTKIQQIKEVIVHES” here?
The value was “not soluble”.

For “MTNFRPCFLIPCYNHGKTIPAVVESLMSYGYPMIIVDDGSENETKRILEEVTQHNESITLITLAENQGKGGAVIAGIEKAYQQSYSHAIQIDADGQHDLEALPKLIAESQEHPTALISGQPIYDESVPKSRLYGRYATHIWVWIETLSFTIKDSMCGFRSYPIGPTINVLERAVLGRRMDFDTEIMVRMYWNETDIRFINTRVIYPEDGISHFDALWDNVKISWMHTKLFFGMLPRIPSLLKRKPVQEDHWSSHAERGTILGIQFLLWIYSTFGRKVFSLLLKPVMAYYYLRGGSVKDASDDFIQQVNAYARIKGIQLPEKLTTYRHLVSFGETMLDKLAAWRGDFSDKNLTVHGIEHYQTLAQREKGIVLLGSHLGNLELCRALSRRHTHLKINALVFTEHAERFNTVMKTVNPQSEVNVIQVSKIGPDTAILLQQKIDDGEWIVIVGDRTSVTKENRVIWADFLGKPAPFPQGPFMLASILKQPVYLMFGLRDDTQKDPLFDVYLEPFSEQIILPRGKREEALQEVVQNYAQRLEHFTLKAPSQWYNFFNFWQLTGKKDDNLEHHHHHH”, which “soluble on expression in E. coli” value is on record?
The value was “soluble”.

With “MVVKEILRLLFLLAMYELGKYVTEQVYIMMTANDDVEAPSDYEKIRAEVSWLEHHHHHH” as the sequence, how does the “soluble on expression in E. coli” value read?
Its value is “not soluble”.

For “MDALNNKLYFIDSTKHKIFVEQIINGMHDWVRVIDINDNIIFVNESMAKALGKNVIGEKCYKAIGKSEPCENCTSRKAVFEGTIQAKEEIIGDRIFSVKSSPIRDENGQITAVVEVLRDITEMKKMQKKILEHNQKLQSELNMARRLQCSLLPKELPQDKIDFSYVYRPCEAIGGDFLDIFKIDDEHIGIYIADVSGHGVPASMLTVFLRSSINKKTLSPAEALNQLYKEFNRDYYDQELYITIFYAIIDTKNKNIIYSNAGHNASPVLFNHESHRFDILRIPGVPISDWVDNPEYTEKSISIEKGDRLFMYTDGIVELRNNKGEQFGEERLLNILLGEKMPPAMTLDRIIEAAMEFANIKNFNKIIDDITMALLEIL”, which “soluble on expression in E. coli” value is on record?
Its value is “soluble”.

For “MGSDKIHHHHHHMLASSDLPYRKMITWAGFYQDYYLVDINTGRKLPLLTQQPSDSDPSLSGDGKFVVYYQQGHVYLYDIAQGRRTNLTQSLKVSFADEDHDYPSNAPGYGFGPWLKDDAGILVYDKFDVWQFNTASKTGFALTAGQGRAQKIQYRLEGLVDNPDEPTTLAYNATVLLHGYSDKTKADGFYQATLGEAGVKTLMEGEYKLTVLGRSKDTDTLVFSKERFDLFPDLYTASYQAPQQAVKQTDLDKQRQAFNWSQAELVHWTNGDGKPLDGVLIKPTNYQAGERYPVLVYYYELMTDRLHAFPQMKVNHRPNFAWYVNNGYALFLPDIRFDIGYPGASSVQTLTSGVQKLIDMGVADANAIGLQGHSWSGYQTAFAITQTKMFKAAVAGAPVANMTSAYNGIRHGTGIARQFQYETGQSRIGASLFAAPQKYIENSPVFYADRIKTPLMIMFGDKDDAVPWEQGVEMYLAMRRAGKDVVFLQYEDEPHHLKKYPNKLDYSIRMMEYFDHYLKGKPAPAWLSQGEAYVEYKADDE”, which “soluble on expression in E. coli” value is on record?
Its value is “not soluble”.

With “MQLRSVIAADHPALFALWSRTPGIRLRAEDAYPFFLAYLQRNPGLSLLVETEGEVIACLMAGHDGRRGYLQHLVVDPGYRGLGLARRMLDEVLARLAREGIGKSHVFVLDAAEEAQAFWRAQSDWERRKDIQVFSTREGHA” as the sequence, how does the “soluble on expression in E. coli” value read?
The value was “soluble”.

Which “soluble on expression in E. coli” value does the source give for “MGSDKIHHHHHHMTLSITSNFDAGAIDVVSCERADAIRLRVRGDNRSEFAQWFYFRLTGARGERCVMTFENANDCAYPAGWRDYRAVASYDRVNWFRVPTSYDGQMLTIDHTPEFDSIHYAYFEPYSEERHSEFLGAVQQMPQASVVELGRTVEGRPMSLVVLGTPDEAGAAKKKVWIIARQHPGESMAEWFIEGLVKRLVGWGDWSGDPVARKLYDHATFYIVPNMNPDGSVHGNLRTNAAGANLNREWMEPDAERSPEVLVVRDAIHAIGCDLFFDIHGDEDLPYVFAAGSEMLPGFTEQQRVEQSAFIDSFKRASPDFQDEHGYPPGKYREDAFKLASKYIGHRFGCLSLTLEMPFKDNANLPDEHIGWNGARSASLGAAMLGAILEHVRAFA” here?
The value was “not soluble”.

Which “soluble on expression in E. coli” value does the source give for “MENMENDENIVVGPKPFYPIEEGSAGTQLRKYMERYAKLGAIAFTNAVTGVDYSYAEYLEKSCCLGKALQNYGLVVDGRIALCSENCEEFFIPVIAGLFIGVGVAPTNEIYTLRELVHSLGISKPTIVFSSKKGLDKVITVQKTVTTIKTIVILDSKVDYRGYQCLDTFIKRNTPPGFQASSFKTVEVDRKEQVALIMNSSGSTGLPKGVQLTHENTVTRFSHARDPIYGNQVSPGTAVLTVVPFHHGFGMFTTLGYLICGFRVVMLTKFDEETFLKTLQDYKCTSVILVPTLFAILNKSELLNKYDLSNLVEIASGGAPLSKEVGEAVARRFNLPGVRQGYGLTETTSAIIITPEGDDKPGASGKVVPLFKAKVIDLDTKKSLGPNRRGEVCVKGPMLMKGYVNNPEATKELIDEEGWLHTGDIGYYDEEKHFFIVDRLKSLIKYKGYQVPPAELESVLLQHPSIFDAGVAGVPDPVAGELPGAVVVLESGKNMTEKEVMDYVASQVSNAKRLRGGVRFVDEVPKGLTGKIDGRAIREILKKPVAKM” here?
Its value is “soluble”.

With “MGSDKIHHHHHHSDLNSNIKDDPYSGGKAPLGIGLLAESPSPESAYPNDTVVFKAKGMLNWCDPQSGRYDFKFYISDEETKIVTATDTTITVKVPGNLSSGTAYIVLKEQVFYGPRLTVLGNIKIDQSYGFKGTSGPIYDCAEHYSKARVYYPVGDYMQAYYNENSSQSFSCISMVLTDGSVSGKWVTDFKLDPGQGAGIDLANPGVTDIECYLNSFTYFPSDHRVLLSGKFSEYGWDKLPVNNITIATNEVASYYKTVALPSKKNNTSINCKIPVFNGGTLEAPVRTFITSNEKVVAVGNITNYCRINTEKSYAESMVLDYSKVASVLRMSRTGELDDSYRRDAEGVIGQILDACMVESDGIVIVGTFSSFDGQSVKNIVKLNAEGTLDETFMKNIGTGANGSITKIRYNKNKKKILITGEFSEFNGIPAQSVVMLNDDGTRDEIFKIGKMEGGLANFACLLDNDNIVVSGAFTKYDGVTRRGFLILGRDGKALQQFNVPGIFQGELYKVIETRTSTNSNGLLLLGDFSRFDGNMVRNAIMIEVDYE” as the sequence, how does the “soluble on expression in E. coli” value read?
Its value is “not soluble”.

Which “soluble on expression in E. coli” value does the source give for “MSLVDTEIWLRLMSISSLYGDDMVRIAHWLARQSHIDAVVLQQTGLTLRQAQRFLSFPRKSIESSLCWLEQPNHHLIPADSEFYPPQLLATTDYPGALFVEGELHALHSFQLAVVGSRAHSWYGERWGRLFCETLAKHGVTITSGLARGIDGVAHKAALQVNGVSIAVLGNGLNTIHPRRHARLAASLLEQGGALVSEFPLDVPPLAYNFPRRNRIISGLSKGVLVVEAALRSGSLVTARCALEQGREVFALPGPIGNPGSEGPHWLIKQGAILVTEPEEILENLQFGLHWLPDAPENSFYSPDQEDVALPFPELLANVGDEVTPVDVVAERAGQPVPEVVTQLLELELAGWIAAVPGGYVRLRRACHVRRTNVFVEGHHHHHH” here?
Its value is “soluble”.

For “MGSDKIHHHHHHMGIHLDFGISPKTFRQTYLYQKPKLFKGAVRNLEAASCKYINEIYQRADPTAPLFHLRKKGAIVPKEEYVESFDDLGKTRYRFIKSVIYEHMKNGASLVYNHINNEPFSDHIARQVARFAGAHTIVSGYLAFGSDESYKNHWDTRDVYAIQLFGKKRWQLTAPDFPMPLYMQQTKDTDISIPEHIDMDIILEAGDVLYIPRGWWHRPIPLGCETFHFAVGTFPPNGYNYLEWLMKKFPTIESLRHSFSDWEQDRTRINDTAAQIAAMIADPVNYEAFSEDFLGKERTDTAFHLEQFANPNATPLSDDVRLRLNANNLDTLEKGYLIGNGMKISVDELGKKVLEHIGKNEPLLLKNLLVNFNQAKHEEVRKLIYQLIELDFLEIL”, which “soluble on expression in E. coli” value is on record?
Its value is “not soluble”.

With “MGSDKIHHHHHHVCRNCSNKQKIRKNSMDYTDISILHTNDMHSYMENFPKKAQLIANIRARNEKEGVPTFVFDSGDLFSGNIFFNMYRGVKEIELMNQIGCQAMTLGNHEFDHGDELISRLDDYAQFPIVSSNLRYQDVEVADELVPLEDVLEFDMNGKNLYVLGLTTLETQEVASPSENVIFEDHKQALRRLVDQIVSQNPSAHLVLLSHLGYDEDVHLAKDFPELNVILGGHTHTILKQPSQIGGVSICQAGQYGRFVGHLSLRCFADGRREVQAYDLIEVEKLTQEDRAVKAIIDQMKSERDAAFSKPIAILPQALDGERDSIRQGLSTLAPVICQALFEQASQLGLQADGAVINGFGIRASLSAGPIFYSDLVKVLPFSKRVLLVRIKGRDLLSSLQTGLHPQMWGIVQSGEDLLVNGRAVESDKDYQIVTNSFVWSGKDNYDDFHKAEIVQDLGLDIDIISEFFKRQYGG” as the sequence, how does the “soluble on expression in E. coli” value read?
Its value is “not soluble”.

With “MALPKPSDGTLPAEVQGRGQRRRLVWTPSQSKALQACFERNPYPGITTRERLAQAIGIPEPRVQILFQNERSCQLRQHWH” as the sequence, how does the “soluble on expression in E. coli” value read?
The value was “soluble”.

With “GPGSMSDWETIAKESEKVLVKPDIKGCHEILMKAYEGGNHHPEILWRLGRSYYEMANESTDPAVREPYLKEGMELCKKSVEADPHNFASHKWLGILISDQKVGNKEKIANAYIIRDHFLKAVELNPNDATSLHCMGNWCFKILQIGWLERKAAALILGEPPSSTYEECLGYLLRSAEAGNTIHNSTMIGDVYAQQSMHDEARKWYQKAIDMPAYTELQKRNHDAAVAKIKKL” as the sequence, how does the “soluble on expression in E. coli” value read?
Its value is “soluble”.

For “MEIKPTPSPPEERTIYVANFSEEVDEELLEELFIQAGPVVKVILRDVRDSNAKFALVEFEDELSVLFAIELMNGVRLFNQELQVKPRNGTNQEELYKRKKGEIEERVRSVAAPDRDGRRDSYRDDRNRNRNGNNRDSWQQQQPPRHHRQYDPLPPPPPPPLMGGSGGHWRSGGERGPPQYSTPQMLPHQHFVNQMMQQQINRSAPPYNGRHQNSTPHRHHDRHGYDRSSSRHHRNDDRRRSAHFLDIRKFQAPPTSWAFGNFQCFFWNLFSKITYLQEVGGA”, which “soluble on expression in E. coli” value is on record?
The value was “not soluble”.

For “MKITLIIPTYNAGSLWPNVLDAIKQQTIYPDKLIVIDSGSKDETVPLASDLKNISIFNIDSKDFNHGGTRNLAVAKTLDADVIIFLTQDAILADSDAIKNLVYYFSDPLIAAVCGRQLPHKDANPLAVHARNFNYSSKSIVKSKADIEKLGIKTVFMSNSFAAYRRSVFEELSGFPEHTILAEDMFMAAKMIQAGYKVAYCAEAVVRHSHNYTPREEFQRYFDTGVFHACSPWIQRDFGGAGGEGFRFVKSEIQFLLKNAPFWIPRALLTTFAKFLGYKLGKHWQSLPLSTCRYFSMYKSYWNNIQYSSSKEIKLEHHHHHH”, which “soluble on expression in E. coli” value is on record?
Its value is “soluble”.
